Experimental data from publication PMC5897352, “Isolation and characterization of a multifunctional flavonoid glycosyltransferase from Ornithogalum caudatum with glycosidase activity” (Scientific Reports, 2018).

What was measured:
[1] = substrate: O=[N+]([O-])c1ccccc1O[C@@H]1O[C@H](CO)[C@H](O)[C@H](O)[C@H]1O; test: HPLC hydrolysis assay (o-nitrophenol release), Lineweaver-Burk; type: biochemical, Albuca bracteata; settings: no UDP or UDP-sugar, phosphate buffer (pH 6.0 in methods, optimum pH 7), 37 °C
[2] = substrate: O=c1cc(-c2ccccc2)oc2cc(O)cc(O)c12; test: HPLC glucosylation assay, Lineweaver-Burk; type: biochemical, Albuca bracteata; settings: 1 mM UDP-Glc fixed, phosphate buffer pH 8.0, 50 °C, apparent Km

B1: OcUGT1 (Albuca bracteata) (protein)
chain: MGSEAHGALHILFFPLMAPGHMLPMVDMAKLFAARGLKPTIFTTPGNVRLIQPSIDNANGSGHQNPIQLFTVPFPSIDGIPDGCENLSSVTQELHVKFFVGLGNLREPFKDSLARLRPDCIVSDMFLPWTADEAAERGMPRLVFHGSNFFTQCAYRSIEHHKVLESLAPGEDTFVIPGLPHRVELRRSTMPDIQTFAPELMDIILQTREAELKSLGTVMNTFYELEPDYADHFCNVMGRRAWNIGPLSLCNKDVADKWRRGNEASITSEFCLNWLDSQEPSSVVYVCFGSLSDFTTAQLREIAAGLEASGRPFVWVVRNHSEEWIPEGLEERVGGKGLIIRGWAPQILILSHVAVGGFLTHCGWNSILEGVSAGLPFVTWPLFADQFYNERLIVDVLKIGVAVGSNEYANKPEERKIIEAAKIEATINELMGDGKDADERREKARALGELAQRAVEKGGSSYRDLDNLISELVEKRSAV
notes: full-length ORF of 1440 bp (479 residues by ORF length)
[1]
  Km: 6.897 ± 1.995 mM
[2]
  Km: 0.1506 ± 0.0139 mM
